{"source": "patent US20260231954A1", "about": "“PESTICIDAL ENZYMES FOR USE ON NEMATODES, INSECTS, AND MOLLUSKS” (priority 2023, published 2026)", "molecules": {"B1": {"name": "Esterase from Rhizopus oryzae: Rhizopus oryzae Esterase (carboxylesterase, SEQ ID NO:253) (protein, listed as Rhizopus oryzae)", "chain": "SDGGKVVAATTAQIQEFTKYAGIAATAYCRSVVPGNKWDCVQCQKWVPDGKIITTFTSLLSDTNGYVLRSDKQKTIYLVFRGTNSFRSAITDIVFNFSDYKPVKGAKVHAGFLSSYEQVVNDYFPVVQEQLTANPTYKVIVTGHSLGGAQALLAGMDLYQREPRLSPKNLSIFTVGGPRVGNPTFAYYVESTGIPFQRTAHKRDIVPHVPPQSFGFLHPGVESWIKSGTSNVQICTSEIETKDCSNSIVPFTSILDHLSYFDINEGSCL", "modifications": "Rhizopus cf. oryzae"}, "B2": {"name": "EstA fermentation: Esterase A (EstA) from Bacillus subtilis (SEQ ID NO:254), fermentation product of recombinant Bacillus subtilis (protein, listed as Bacillus subtilis)", "chain": "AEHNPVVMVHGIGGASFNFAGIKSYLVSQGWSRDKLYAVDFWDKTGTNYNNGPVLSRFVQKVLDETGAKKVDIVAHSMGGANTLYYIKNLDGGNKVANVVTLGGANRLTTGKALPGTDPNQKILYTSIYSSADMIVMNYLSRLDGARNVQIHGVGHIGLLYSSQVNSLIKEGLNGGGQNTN"}, "B3": {"name": "PytH esterase (SEQ ID NO:255): Sphingobium wenxiniae (PytH) Esterase from recombinant Bacillus subtilis fermentation (protein, listed as Sphingobium wenxiniae)", "chain": "MTVTDIILIHGALNRGACYDAVVPLLEARGYRVHAPDLTGHTPGDGGHLSVVDMEHYTRPVADILARAEGQSILLGHSLGGASISWLAQHHPDKVAGLIYLTAVLTAPGITPETFVLPGEPNRGTPHALDLIQPVDEGRGLQADFSRLERLREVFMGDYPGEGMPPAEQFIQTQSTVPFGTPNPMEGRALEIPRLYIEALDDVVIPIAVQRQMQKEFPGPVAVVSLPASHAPYYSMPERLAEAIADFADAPAEYRQTATKAGPDRPAGADGGRADRADLP"}, "B4": {"name": "Geobacillus stearothermophilus esterase (SEQ ID NO:252): Esterase (carboxylesterase) from Geobacillus/Bacillus stearothermophilus (protein, listed as Bacillus stearothermophilus, listed as Geobacillus stearothermophilus)", "chain": "MKIVPPKPFFFEAGERAVLLLHGFTGNSADVRMLGRFLESKGYTCHAPIYKGHGVPPEELVHTGPDDWWQDVMNGYEFLKNKGYEKIAVAGLSLGGVFSLKLGYTVPIEGIVTMCAPMYIKSEETMYEGVLEYAREYKKREGKSEEQIEQEMEKFKQTPMKTLKALQELIADVRDHLDLIYAPTFVVQARHDEMINPDSANIIYNEIESPVKQIKWYEQSGHVITLDQEKDQLHEDIYAFLESLDW"}, "B5": {"name": "Feruloyl Esterase (SEQ ID NO:91): Beauveria bassiana Feruloyl Esterase A2 (protein, listed as Beauveria bassiana)", "chain": "MLSLLGFLGFAALAAAAPVRDQAFIPRTLVNRSIYDKLALYAGYTQLSNTGICARPSVPGVLYQFVESKDTDTQVSIWKVDAYKEFVIAIPGTSSARDNETNFDFALVPYQADNVRCPSCRVHKGYQAAWRSVMKQVQGNLTNLLGIHPDYTVTLTGHSLGGGLVSIAFPTLRNGPYNVTQAYTYGQPRAGNGAFANYVDGISGASDKEAGIFYRVTHANDLIPKLPPGIFGYKHSRTEYWESKPSMDNAASTYRCYGQEPADCNRNATGIDSKVHVTYAGMNVTCNKS", "modifications": "Feruloyl Esterase A2"}}, "format_in_all_cases": "in vivo", "key": {"[1]": {"tested_on": "corn", "assay": "Greenhouse trial: Rhizopus oryzae Esterase corn seed treatment, plant height", "details": "0.5 fl oz/unit seed treatment, 6049 V2 hybrid corn, plant height day 10, water control = 100%", "protocol": "Rhizopus oryzae Esterase (carboxylesterase, SEQ ID NO:253) was coated onto 6049 V2 hybrid corn seeds. A water only control treatment without esterase enzyme was also created. The seed treated with esterase and control seed was planted in replicated greenhouse trials on promix soil with a fluctuating day/night temperature of 78° F./75° F., and 13 hours of light daily. Plant heights were measured on day 10 for each plant emerged from the soil."}, "[2]": {"tested_on": "winter wheat", "assay": "Field trial: esterase on MAP fertilizer, winter wheat yield and vigor", "details": "1 fl oz/A EstA fermentation on MAP (15 lb/A Phosphate); MAP base control 4124.5", "protocol": "(§1) Esterase A (EstA) from Bacillus subtilis (SEQ ID NO:254) was produced via fermentation of a recombinantly produced enzyme in Bacillus subtilis. 1 fl oz of fermentation product was applied onto 15 lb P/A (phosphate equivalent per acre) monoammonium phosphate (MAP) fertilizer in a concrete mixer and allowed to mix for 1 minute. A MAP control treatment without fermentation media was also created. MAP, alone or with fermentation media was distributed across 4 small replicated plots prior to planting of winter wheat with 5 replicates of 300 ft^2 each at each site."}, "[3]": {"tested_on": "corn", "assay": "Field trial: esterase on MAP/DAP fertilizer, corn yield", "details": "2 fl oz/A EstA fermentation on MAP/DAP (72 lb/A Phosphate); base control 12798", "protocol": "Esterase A (EstA) from Bacillus subtilis (SEQ ID NO:254) was produced via fermentation of a recombinantly produced enzyme in Bacillus subtilis. 2 fl oz of fermentation product was applied onto either 72 lb P/A (phosphate equivalent per acre) monoammonium phosphate (MAP) fertilizer or diammonium phosphate (DAP) fertilizer in a concrete mixer, and allowed to mix for 1 minute. A MAP/DAP control treatment without fermentation media was also created. MAP or DAP, alone or with fermentation media was distributed across 4 small replicated plots each prior to planting of corn with 5 replicates of 400 ft2 each at each site (4 site with MAP, 4 sites with DAP, combined in data in Table 52 below)."}, "[4]": {"tested_on": "winter wheat", "assay": "Field trial: esterase on urea fertilizer, winter wheat yield", "details": "1 fl oz or 2 fl oz fermentation product on 15 lb N/A urea", "protocol": "as §1, with “oz or 2 fl oz” for “oz”, “N/A (nitrogen” for “P/A (phosphate”, “urea” for “monoammonium phosphate (MAP)”, “urea” for “MAP”, “urea,” for “MAP,”"}, "[5]": {"tested_on": "corn", "assay": "Field trial: esterase on DAP fertilizer, corn yield", "details": "1, 2, or 3 fl oz fermentation product on 67.5 lb P/A DAP", "protocol": "(§2) Esterase A (EstA) from Bacillus subtilis (SEQ ID NO:254) was produced via fermentation of a recombinantly produced enzyme in Bacillus subtilis. 1, 2, or 3 fl oz of fermentation product was applied onto 67.5 lb P/A (phosphate equivalent per acre) diammonium phosphate (DAP) fertilizer in a concrete mixer, and allowed to mix for 1 minute. A DAP control treatment without fermentation media was also created. DAP, alone or with fermentation media was distributed across 4 small replicated plots each prior to planting of corn with 4 replicates of 400 ft^2 each at each site."}, "[6]": {"tested_on": "corn", "assay": "Field trial: esterase on urea with or without NBPT nitrogen stabilizer, corn yield", "details": "1, 2, or 3 fl oz fermentation product on 135 lb N/A urea, with or without 64 fl oz/ton NBPT", "protocol": "as §2, with “135” for “67.5”, “N/A (nitrogen” for “P/A (phosphate”, “urea” for “diammonium phosphate (DAP)”, “urea” for “DAP”, “An addition treatment that contained 64 fl oz/ton N-Butyl-thiophosphoric triamide (NBPT) nitrogen stabilizer or 64 fl oz/ton NBPT nitrogen stabilizer with 3 fl oz/A EstA fermentation product was also included in the trial. Urea,” for “DAP,”, “ft2” for “ft^2”"}, "[7]": {"tested_on": "corn", "assay": "Field trial: EstA Esterase corn seed treatment, yield", "details": "2.5 fl oz/unit on hybrid corn seed; 16 sites", "description": "2.5 fl oz/unit of EstA Esterase from recombinant Bacillus subtilis fermentation (SEQ ID NO: 254) was coated onto hybrid corn seeds treated with Fludioxinil, Azoxystrobin, mefonoxam, and thiabendaz fungicides, cyantraniliproleinsecticide, peridium 1006 polymer, and (colorant). A control treatment without esterase enzyme was also created. The seed treated with esterase and control seed was planted in replicated trials distributed across 16 replicated plots with 4 replicates of 80 ft2 each at each site."}, "[8]": {"tested_on": "corn", "assay": "Field trial: PytH Esterase corn seed treatment, yield", "details": "0.5 fl oz/unit on hybrid corn seed; 10 sites", "description": "0.5 fl oz/unit of PythH Esterase from recombinant Bacillus subtilis fermentation (SEQ ID NO:255) was coated onto Hybrid corn seeds treated with Fludioxinil fungicide, ipconazole fungicide, peridium 1006 polymer, and Sensient Red (colorant). A control treatment without esterase enzyme was also created. The seed treated with esterase and control seed was planted in replicated trials distributed across 10 replicated plots with 4 replicates of 100 ft2 each at each site."}, "[9]": {"tested_on": "soybean", "assay": "Field trial: Geobacillus stearothermophilus esterase soybean seed treatment, yield", "details": "0.5 fl oz/unit on soybean seed; 6 sites", "description": "0.5 fl oz/unit of Esterase (carboxylesterase) from Geobacillus/Bacillus stearothermophilus (SEQ ID NO:252) was coated onto soybean seeds treated with Evergol Energy (prothioconazole, metalaxyl, and penflufen fungicides) at 1 fl oz/cwt, Alias 4F (imidacloprid, insecticide) at 1.25 fl oz/unit, Sensient Red (colorant) at 0.5 fl oz/cwt, and Seedwork 4037L polymer at 1.5 fl oz/cwt. A control treatment without esterase enzyme was also created. The seed treated with esterase and control seed was planted in replicated trials distributed across 6 replicated plots with 4 replicates of 60 ft2 each at each site."}, "[10]": {"tested_on": "soybean", "assay": "Field trial: Feruloyl Esterase soybean seed treatment, yield", "details": "1 fl oz/unit on soybean seed; 5 sites", "description": "1 fl oz/unit of Feruloyl Esterase (SEQ ID NO:91) was coated onto soybean seeds treated with Fludioxinil fungicide, metalaxyl fungicide, thiamethoxam […], Seedwork 1037L polymer, and Sensient Red (colorant). A control treatment without esterase enzyme was also created. The seed treated with esterase and control seed was planted in replicated trials distributed across 5 replicated plots with 4 replicates of 30 ft2 each at each site."}}}
{"molecule": "B1", "values": [{"measurement": "Height as % of Control", "setting": "[1]", "result": 103.7, "unit": "%"}, {"measurement": "Height as % of Control", "setting": "[1]; listed as Rhizopus oryzae Esterase", "result": "increase the growth rate of corn"}]}
{"molecule": "B2", "values": [{"measurement": "Yield (Kg/ha)", "setting": "[2]", "result": 4224.7, "unit": "Kg/ha"}, {"measurement": "Yield (Kg/ha)", "setting": "[3]", "result": 13077, "unit": "Kg/ha"}, {"measurement": "yield vs urea control (in words)", "setting": "[4]", "result": "increased the yield"}, {"measurement": "yield vs DAP control (in words)", "setting": "[5]", "result": "increased the yield"}, {"measurement": "yield vs urea control and NBPT containing treatments (in words)", "setting": "[6]", "result": "increased the yield"}, {"measurement": "yield vs base seed treatment package (in words)", "setting": "[7]", "result": "increased the yield"}]}
{"molecule": "B3", "values": [{"measurement": "yield vs base seed treatment package (in words)", "setting": "[8]", "result": "increased the yield"}]}
{"molecule": "B4", "values": [{"measurement": "yield vs base seed treatment package (in words)", "setting": "[9]", "result": "increased the yield"}]}
{"molecule": "B5", "values": [{"measurement": "yield vs base seed treatment package (in words)", "setting": "[10]", "result": "increased the yield"}]}
